Assay results as given in publication PMC7367873, “Dissecting the sequence determinants for dephosphorylation by the catalytic subunits of phosphatases PP1 and PP2A” (Nature Communications, 2020).

Tests used:
[1] = tested on: GFP-14-3-3β and its binding proteins; assay: GFP-14-3-3β co-IP with LC-MS/MS label-free quantification, untreated versus PP1c-treated; design: species or system human; details: GFP-14-3-3β co-IP LC-MS/MS; PP1 vs untreated; student's t-test; label-free quantification, 3 replicates each
GFP-14-3-3β = GFP-14-3-3β co-IP with LC-MS/MS, untreated GFP-14-3-3β versus GFP control (14-3-3 interactome); type: binding, human; details: GFP-14-3-3β co-IP LC-MS/MS; untreated vs GFP; student's t-test; label-free quantification, 3 replicates each

Molecule | Difference (log2), PP1 vs untreated [1] [log2] | Difference (log2), untreated vs GFP (GFP-14-3-3β) [log2]
KANK2 (protein, UniProt Q63ZY3 1-851, looked up) KN motif and ankyrin repeat …: MAQVLHVPAPFPGTPGPASPPAFPAKDPDPPYSVETPYGYRLDLDFLKYVDDIEKGHTLRRVAVQRRPRLSSLPRGPGSWWTSTESLCSNASGDSRHSAYSYCGRGFYPQYGALETRGGFNPRVERTLLDARRRLEDQAATPTGLGSLTPSAAGSTASLVGVGLPPPTPRSSGLSTPVPPSAGHLAHVREQMAGALRKLRQLEEQVKLIPVLQVKLSVLQEEKRQLTVQLKSQKFLGHPTAGRGRSELCLDLPDPPEDPVALETRSVGTWVRERDLGMPDGEAALAAKVAVLETQLKKALQELQAAQARQADPQPQAWPPPDSPVRVDTVRVVEGPREVEVVASTAAGAPAQRAQSLEPYGTGLRALAMPGRPESPPVFRSQEVVETMCPVPAAATSNVHMVKKISITERSCDGAAGLPEVPAESSSSPPGSEVASLTQPEKSTGRVPTQEPTHREPTRQAASQESEEAGGTGGPPAGVRSIMKRKEEVADPTAHRRSLQFVGVNGGYESSSEDSSTAENISDNDSTENEAPEPRERVPSVAEAPQLRPAGTAAAKTSRQECQLSRESQHIPTAEGASGSNTEEEIRMELSPDLISACLALEKYLDNPNALTERELKVAYTTVLQEWLRLACRSDAHPELVRRHLVTFRAMSARLLDYVVNIADSNGNTALHYSVSHANFPVVQQLLDSGVCKVDKQNRAGYSPIMLTALATLKTQDDIETVLQLFRLGNINAKASQAGQTALMLAVSHGRVDVVKALLACEADVNVQDDDGSTALMCACEHGHKEIAGLLLAVPSCDISLTDRDGSTALMVALDAGQSEIASMLYSRMNIKCSFAPMSDDESPTSSSAEE | -0.5359 | 1.477
DNTTIP2 (protein, UniProt Q5QJE6 1-756, looked up) Deoxynucleotidyltransferase …: MVVTRSARAKASIQAASAESSGQKSFAANGIQAHPESSTGSDARTTAESQTTGKQSLIPRTPKARKRKSRTTGSLPKGTEPSTDGETSEAESNYSVSEHHDTILRVTRRRQILIACSPVSSVRKKPKVTPTKESYTEEIVSEAESHVSGISRIVLPTEKTTGARRSKAKSLTDPSQESHTEAISDAETSSSDISFSGIATRRTRSMQRKLKAQTEKKDSKIVPGNEKQIVGTPVNSEDSDTRQTSHLQARSLSEINKPNFYNNDFDDDFSHRSSENILTVHEQANVESLKETKQNCKDLDEDANGITDEGKEINEKSSQLKNLSELQDTSLQQLVSQRHSTPQNKNAVSVHSNLNSEAVMKSLTQTFATVEVGRWNNNKKSPIKASDLTKFGDCGGSDDEEESTVISVSEDMNSEGNVDFECDTKLYTSAPNTSQGKDNSVLLVLSSDESQQSENSENEEDTLCFVENSGQRESLSGDTGSLSCDNALFVIDTTPGMSADKNFYLEEEDKASEVAIEEEKEEEEDEKSEEDSSDHDENEDEFSDEEDFLNSTKAKLLKLTSSSIDPGLSIKQLGGLYINFNADKLQSNKRTLTQIKEKKKNELLQKAVITPDFEKNHCVPPYSESKYQLQKKRRKERQKTAGDGWFGMKAPEMTNELKNDLKALKMRASMDPKRFYKKNDRDGFPKYFQIGTIVDNPADFYHSRIPKKQRKRTIVEELLADSEFRRYNRRKYSEIMAEKAANAAGKKFRKKKKFRN | -0.5492 | 2.447
UBTF (protein, UniProt P17480 1-764, looked up) Nucleolar transcription …: MNGEADCPTDLEMAAPKGQDRWSQEDMLTLLECMKNNLPSNDSSKFKTTESHMDWEKVAFKDFSGDMCKLKWVEISNEVRKFRTLTELILDAQEHVKNPYKGKKLKKHPDFPKKPLTPYFRFFMEKRAKYAKLHPEMSNLDLTKILSKKYKELPEKKKMKYIQDFQREKQEFERNLARFREDHPDLIQNAKKSDIPEKPKTPQQLWYTHEKKVYLKVRPDATTKEVKDSLGKQWSQLSDKKRLKWIHKALEQRKEYEEIMRDYIQKHPELNISEEGITKSTLTKAERQLKDKFDGRPTKPPPNSYSLYCAELMANMKDVPSTERMVLCSQQWKLLSQKEKDAYHKKCDQKKKDYEVELLRFLESLPEEEQQRVLGEEKMLNINKKQATSPASKKPAQEGGKGGSEKPKRPVSAMFIFSEEKRRQLQEERPELSESELTRLLARMWNDLSEKKKAKYKAREAALKAQSERKPGGEREERGKLPESPKRAEEIWQQSVIGDYLARFKNDRVKALKAMEMTWNNMEKKEKLMWIKKAAEDQKRYERELSEMRAPPAATNSSKKMKFQGEPKKPPMNGYQKFSQELLSNGELNHLPLKERMVEIGSRWQRISQSQKEHYKKLAEEQQKQYKVHLDLWVKSLSPQDRAAYKEYISNKRKSMTKLRGPNPKSSRTTLQSKSESEEDDEEDEDDEDEDEEEEDDENGDSSEDGGDSSESSSEDESEDGDENEEDDEDEDDDEDDDEDEDNESEGSSSSSSSSGDSSDSDSN | -0.5334 | 1.529
WDR3 (protein, UniProt Q9UNX4 1-943, looked up) WD repeat-containing protein 3: MGLTKQYLRYVASAVFGVIGSQKGNIVFVTLRGEKGRYVAVPACEHVFIWDLRKGEKILILQGLKQEVTCLCPSPDGLHLAVGYEDGSIRIFSLLSGEGNVTFNGHKAAITTLKYDQLGGRLASGSKDTDIIVWDVINESGLYRLKGHKDAITQALFLREKNLLVTSGKDTMVKWWDLDTQHCFKTMVGHRTEVWGLVLLSEEKRLITGASDSELRVWDIAYLQEIEDPEEPDPKKIKGSSPGIQDTLEAEDGAFETDEAPEDRILSCRKAGSIMREGRDRVVNLAVDKTGRILACHGTDSVLELFCILSKKEIQKKMDKKMKKARKKAKLHSSKGEEEDPEVNVEMSLQDEIQRVTNIKTSAKIKSFDLIHSPHGELKAVFLLQNNLVELYSLNPSLPTPQPVRTSRITIGGHRSDVRTLSFSSDNIAVLSAAADSIKIWNRSTLQCIRTMTCEYALCSFFVPGDRQVVIGTKTGKLQLYDLASGNLLETIDAHDGALWSMSLSPDQRGFVTGGADKSVKFWDFELVKDENSTQKRLSVKQTRTLQLDEDVLCVSYSPNQKLLAVSLLDCTVKIFYVDTLKFFLSLYGHKLPVICMDISHDGALIATGSADRNVKIWGLDFGDCHKSLFAHDDSVMYLQFVPKSHLFFTAGKDHKIKQWDADKFEHIQTLEGHHQEIWCLAVSPSGDYVVSSSHDKSLRLWERTREPLILEEEREMEREAEYEESVAKEDQPAVPGETQGDSYFTGKKTIETVKAAERIMEAIELYREETAKMKEHKAICKAAGKEVPLPSNPILMAYGSISPSAYVLEIFKGIKSSELEESLLVLPFSYVPDILKLFNEFIQLGSDVELICRCLFFLLRIHFGQITSNQMLVPVIEKLRETTISKVSQVRDVIGFNMAGLDYLKRECEAKSEVMFFADATSHLEEKKRKRKKREKLILTLT | -0.4911 | 0.8072
CCDC47 (protein, UniProt Q96A33 21-483, looked up) PAT complex subunit CCDC47: KFDDFEDEEDIVEYDDNDFAEFEDVMEDSVTESPQRVIITEDDEDETTVELEGQDENQEGDFEDADTQEGDTESEPYDDEEFEGYEDKPDTSSSKNKDPITIVDVPAHLQNSWESYYLEILMVTGLLAYIMNYIIGKNKNSRLAQAWFNTHRELLESNFTLVGDDGTNKEATSTGKLNQENEHIYNLWCSGRVCCEGMLIQLRFLKRQDLLNVLARMMRPVSDQVQIKVTMNDEDMDTYVFAVGTRKALVRLQKEMQDLSEFCSDKPKSGAKYGLPDSLAILSEMGEVTDGMMDTKMVHFLTHYADKIESVHFSDQFSGPKIMQEEGQPLKLPDTKRTLLFTFNVPGSGNTYPKDMEALLPLMNMVIYSIDKAKKFRLNREGKQKADKNRARVEENFLKLTHVQRQEAAQSRREEKKRAEKERIMNEEDPEKQRRLEEAALRREQKKLEKKQMKMKQIKVKAM | -0.5387 | 1.192
HNRNPH1 (protein, UniProt P31943 1-449, looked up) Heterogeneous nuclear …: MMLGTEGGEGFVVKVRGLPWSCSADEVQRFFSDCKIQNGAQGIRFIYTREGRPSGEAFVELESEDEVKLALKKDRETMGHRYVEVFKSNNVEMDWVLKHTGPNSPDTANDGFVRLRGLPFGCSKEEIVQFFSGLEIVPNGITLPVDFQGRSTGEAFVQFASQEIAEKALKKHKERIGHRYIEIFKSSRAEVRTHYDPPRKLMAMQRPGPYDRPGAGRGYNSIGRGAGFERMRRGAYGGGYGGYDDYNGYNDGYGFGSDRFGRDLNYCFSGMSDHRYGDGGSTFQSTTGHCVHMRGLPYRATENDIYNFFSPLNPVRVHIEIGPDGRVTGEADVEFATHEDAVAAMSKDKANMQHRYVELFLNSTAGASGGAYEHRYVELFLNSTAGASGGAYGSQMMGGMGLSNQSSYGGPASQQLSGGYGGGYGGQSSMSGYDQVLQENSSDFQSNIA | -0.5044 | 0.1701
FARSA (protein, UniProt Q9Y285 2-508, looked up) Phenylalanine--tRNA ligase …: ADGQVAELLLRRLEASDGGLDSAELAAELGMEHQAVVGAVKSLQALGEVIEAELRSTKHWELTAEGEEIAREGSHEARVFRSIPPEGLAQSELMRLPSGKVGFSKAMSNKWIRVDKSAADGPRVFRVVDSMEDEVQRRLQLVRGGQAEKLGEKERSELRKRKLLAEVTLKTYWVSKGSAFSTSISKQETELSPEMISSGSWRDRPFKPYNFLAHGVLPDSGHLHPLLKVRSQFRQIFLEMGFTEMPTDNFIESSFWNFDALFQPQQHPARDQHDTFFLRDPAEALQLPMDYVQRVKRTHSQGGYGSQGYKYNWKLDEARKNLLRTHTTSASARALYRLAQKKPFTPVKYFSIDRVFRNETLDATHLAEFHQIEGVVADHGLTLGHLMGVLREFFTKLGITQLRFKPAYNPYTEPSMEVFSYHQGLKKWVEVGNSGVFRPEMLLPMGLPENVSVIAWGLSLERPTMIKYGINNIRELVGHKVNLQMVYDSPLCRLDAEPRPPPTQEAA | -0.541 | 1.078
FUS (protein, UniProt P35637 1-526, looked up) RNA-binding protein FUS: MASNDYTQQATQSYGAYPTQPGQGYSQQSSQPYGQQSYSGYSQSTDTSGYGQSSYSSYGQSQNTGYGTQSTPQGYGSTGGYGSSQSSQSSYGQQSSYPGYGQQPAPSSTSGSYGSSSQSSSYGQPQSGSYSQQPSYGGQQQSYGQQQSYNPPQGYGQQNQYNSSSGGGGGGGGGGNYGQDQSSMSSGGGSGGGYGNQDQSGGGGSGGYGQQDRGGRGRGGSGGGGGGGGGGYNRSSGGYEPRGRGGGRGGRGGMGGSDRGGFNKFGGPRDQGSRHDSEQDNSDNNTIFVQGLGENVTIESVADYFKQIGIIKTNKKTGQPMINLYTDRETGKLKGEATVSFDDPPSAKAAIDWFDGKEFSGNPIKVSFATRRADFNRGGGNGRGGRGRGGPMGRGGYGGGGSGGGGRGGFPSGGGGGGGQQRAGDWKCPNPTCENMNFSWRNECNQCKAPKPDGPGGGPGGSHMGGNYGDDRRGGRGGYDRGGYRGRGGDRGGFRGGRGGGDRGGFGPGKMDSRGEHRQDRRERPY | -0.548 | -0.2742
